± gives the standard deviation of the averaged measurements.

For data set [1], the system named is VchCAST RNA-guided transposition machinery (E. coli BL21(DE3) host, lacZ target). Nature of the data set: relative integration efficiency (T-RL orientation) vs wild-type transposon end (log2 (normalized fold change)); transposon end mutated: right end (5 bp flank + 75 bp right end); higher = more efficient transposition. Summed up:
(§1)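 In E. coli BL21(DE3), a T7-driven effector plasmid was paired with a pUC57 mini-transposon donor containing 1549 left-end or 1849 right-end barcoded transposon variants. Cells grew on plates with 0.1 mM IPTG at 37°C for 18 h. Relative integration efficiency was derived from Illumina reads of genomic integration junctions against input plasmids, as a log-transformed output/input barcode fold change normalised to reference barcodes.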

For data set [2] the test system is unchanged. Description: relative integration efficiency (T-LR orientation) vs wild-type transposon end (log2 (normalized fold change)); transposon end mutated: right end (5 bp flank + 75 bp right end); higher = more efficient transposition. In short, it runs like this: as §1

Take “ACATTTGTTCATACAACCCTAAAATGATAATTACACCCATAAATGGATCATTATCACACCCAATTTAACTATAACGCTCTGATCATAGTCAGACCAACATTGCTACGACCCGTATTCGCACCGACAC”: the “relative integration efficiency (log2)” value in data set [1] was -5 ± 0.2; in data set [2], -3.19 ± 0.38.

As to “ACATTTGTTCATACAACCCTAAAATGATAATTACACCCATAAATGGATCATTATCACCCCCAATTTAACTATAACGCTCTGATCATAGTCAGACCAACATTGCTACGACCCGTATTCGCACCGACAC”, the “relative integration efficiency (log2)” value is -4.59 ± 0.14 in data set [1] and -3.98 ± 0.81 in data set [2].

“ACATTTGTTCATACAACCCTAAAATGATAATTACACCCATAAATTCATAATTATCACACCCAATTTAACTATAACGCTCTGATCATAGTCAGACCAACATTGCTACGACCCGTATTCGCACCGACAC”: the “relative integration efficiency (log2)” value in data set [1] was -5.31 ± 0.95; in data set [2], -2.644 ± 0.026.

Take “ACATTTGTTCATACAACCCTAAAATGATAATTACACCCATAAATTCATCATTATCACACCCAATTTAACTATAACGCTCTGATCATAGTCAGACCAACATTGCTACGACCCGTATTCGCACCGACAC”: the “relative integration efficiency (log2)” value is -5.84 ± 0.57 in data set [1] and -3.3 ± 0.36 in data set [2].

With “ACATTTGTTCATACAACCCTAAAATGATAATTACACCCATAAATTCATCATTATCACCCCCAATTTAACTATAACGCTCTGATCATAGTCAGACCAACATTGCTACGACCCGTATTCGCACCGACAC”, the “relative integration efficiency (log2)” value in data set [1] is -5.29 ± 0.22; in data set [2] it was -3.65 ± 0.85.

On to “ACATTTGTTCATACAACCCTAAAATGATAATTACACCCATAAATTGATAATTATCACACCCAATTTAACTATAACGCTCTGATCATAGTCAGACCAACATTGCTACGACCCGTATTCGCACCGACAC”, for which the “relative integration efficiency (log2)” value in data set [1] was -2.24 ± 0.22; in data set [2], -1.03 ± 0.5.

With “ACATTTGTTCATACAACCCTAAAATGATAATTACACCCATAAATTGATAATTATCACCCCCAATTTAACTATAACGCTCTGATCATAGTCAGACCAACATTGCTACGACCCGTATTCGCACCGACAC”, the “relative integration efficiency (log2)” value in data set [1] was -2.74 ± 0.42; in data set [2], -0.953 ± 0.35.

As to “ACATTTGTTCATACAACCCTAAAATGATAATTACACCCATAAATTGATCATTATCACACCCAATTTAACTATAACGCTCTGATCATAGTCAGACCAACATTGCTACGACCCGTATTCGCACCGACAC”, the “relative integration efficiency (log2)” value in data set [1] was -3.41 ± 0.23; in data set [2] it was -1.36 ± 0.72.

Regarding “ACATTTGTTCATACAACCCTAAAATGATAATTACACCCATAAATTGATCATTATCACCCCCAATTTAACTATAACGCTCTGATCATAGTCAGACCAACATTGCTACGACCCGTATTCGCACCGACAC”, the “relative integration efficiency (log2)” value is -2.63 ± 0.59 in data set [1] and -0.724 ± 0.35 in data set [2].

Take “ACATTTGTTCATCCAACCATAAAATGATAATTACACCCATAAATGGATAATTATCACACCCAATTTAACTATAACGCTCTGATCATAGTCAGACCAACATTGCTACGACCCGTATTCGCACCGACAC”: the “relative integration efficiency (log2)” value in data set [1] is -2.08 ± 0.37; in data set [2], -0.431 ± 0.44.

On to “ACATTTGTTCATCCAACCATAAAATGATAATTACACCCATAAATGGATCATTATCACACCCAATTTAACTATAACGCTCTGATCATAGTCAGACCAACATTGCTACGACCCGTATTCGCACCGACAC”, for which the “relative integration efficiency (log2)” value in data set [1] was -2.36 ± 0.26; in data set [2], -1.01 ± 0.52.

In the case of “ACATTTGTTCATCCAACCATAAAATGATAATTACACCCATAAATTCATAATTATCACACCCAATTTAACTATAACGCTCTGATCATAGTCAGACCAACATTGCTACGACCCGTATTCGCACCGACAC”, the “relative integration efficiency (log2)” value is -2.84 ± 0.39 in data set [1] and -1.1 ± 0.16 in data set [2].

On to “ACATTTGTTCATCCAACCATAAAATGATAATTACACCCATAAATTCATCATTATCACACCCAATTTAACTATAACGCTCTGATCATAGTCAGACCAACATTGCTACGACCCGTATTCGCACCGACAC”, for which the “relative integration efficiency (log2)” value in data set [1] was -2.92 ± 0.45; in data set [2], -0.745 ± 0.19.

Take “ACATTTGTTCATCCAACCATAAAATGATAATTACACCCATAAATTGATAATTATCACACCCAATTTAACTATAACGCTCTGATCATAGTCAGACCAACATTGCTACGACCCGTATTCGCACCGACAC”: the “relative integration efficiency (log2)” value in data set [1] was -1.42 ± 0.29; in data set [2] it was 0.451 ± 0.23.

In the case of “ACATTTGTTCATCCAACCATAAAATGATAATTACACCCATAAATTGATCATTATCACACCCAATTTAACTATAACGCTCTGATCATAGTCAGACCAACATTGCTACGACCCGTATTCGCACCGACAC”, the results for the “relative integration efficiency (log2)” value in data set [1] and in data set [2] were -2.44 ± 0.32 and 0.101 ± 0.12, respectively.

On to “ACATTTGTTCTATCAACCATAAAATGATAATTACACCCATAAATTGATAATTATCACACCCATAAATTGATATTGCCTCTGATCATAGTCAGACCAACATTGCTACGACCCGTATTCGCACCGACAC”, for which the “relative integration efficiency (log2)” value is -1.53 ± 0.17 in data set [1] and -4.42 ± 0.25 in data set [2].

As to “ACATTTGTTCTTACAACCATAAAATGATAATTACACCCATAAATTGATAATTATCACACCCATAAATTGATATTGCCTCTGATCATAGTCAGACCAACATTGCTACGACCCGTATTCGCACCGACAC”, the “relative integration efficiency (log2)” value in data set [1] is -0.825 ± 0.14; in data set [2], -3.55 ± 0.75.

For “ACATTTGTTGAATCAACCATAAAATGATAATTACACCCATAAATTGATAATTATCACACCCATAAATTGATATTGCCTCTGATCATAGTCAGACCAACATTGCTACGACCCGTATTCGCACCGACAC”, the “relative integration efficiency (log2)” value in data set [1] was 0.38 ± 0.14; in data set [2], 0.00973 ± 0.13.

Regarding “ACATTTGTTGAATGTACCATAAAATGATAATTACACCCATAAATTGATAATTATCACACCCATAAATTGATATTGCCTCTGATCATAGTCAGACCAACATTGCTACGACCCGTATTCGCACCGACAC”, the results for the “relative integration efficiency (log2)” value in data set [1] and in data set [2] were -0.836 ± 0.071 and -1.92 ± 0.32, respectively.

For the sequence “ACATTTGTTGACAACCATAAAATGATAATTACACCCATAAATTGATAATTATCACACCCATAAATTGATATTGCCTCTGATCATAGTCAGACCAACATTGCTACGACCCGTATTCGCACCGACACTG”, the “relative integration efficiency (log2)” value in data set [1] is -7.09 ± 0.12; in data set [2] it was -6.81 ± 1.7.

As to “ACATTTGTTGAGCACACCATAAAATGATAATTACACCCATAAATTGATAATTATCACACCCATAAATTGATATTGCCTCTGATCATAGTCAGACCAACATTGCTACGACCCGTATTCGCACCGACAC”, the results for the “relative integration efficiency (log2)” value in data set [1] and in data set [2] were -0.523 ± 0.031 and -1.83 ± 0.7, respectively.

“ACATTTGTTGAGCCAACCATAAAATGATAATTACACCCATAAATTGATAATTATCACACCCATAAATTGATATTGCCTCTGATCATAGTCAGACCAACATTGCTACGACCCGTATTCGCACCGACAC”: the “relative integration efficiency (log2)” value is -0.297 ± 0.0032 in data set [1] and -0.934 ± 0.11 in data set [2].

In the case of “ACATTTGTTGATAAAACCATAAAATGATAATTAAACCCATAAATTGATAATTATCAAACCCATAAATTGATATTGCCTCTGATCATAGTCAGACCAACATTGCTACGACCCGTATTCGCACCGACAC”, the “relative integration efficiency (log2)” value in data set [1] was -0.472 ± 0.18; in data set [2], -0.129 ± 0.36.

Turning to “ACATTTGTTGATAAAACCATAAAATGATAATTAGACCCATAAATTGATAATTATCACACCCATAAATTGATATTGCCTCTGATCATAGTCAGACCAACATTGCTACGACCCGTATTCGCACCGACAC”, the “relative integration efficiency (log2)” value in data set [1] is -1.09 ± 0.15; in data set [2] it was -1.02 ± 0.36.

Consider “ACATTTGTTGATAAAACCATAAAATGATTATTACACCCATAAATTGATAATTATCACACCCATAAATTGATATTGCCTCTGATCATAGTCAGACCAACATTGCTACGACCCGTATTCGCACCGACAC”, for which the “relative integration efficiency (log2)” value in data set [1] is -1.05 ± 0.087; in data set [2], -0.755 ± 0.22.

Take “ACATTTGTTGATAAAACCATAAAATGATTATTAGAAACCATAATCTGAAATTATCACACCCATAAATTGATATTGCCTCTGATCATAGTCAGACCAACATTGCTACGACCCGTATTCGCACCGACAC”: the “relative integration efficiency (log2)” value in data set [1] was -3.26 ± 0.065; in data set [2], -2.22 ± 0.34.

For “ACATTTGTTGATAAAACCATAAAATGATTTTAAGAAACCATAATCTGAAATAATCACACCCATAAATTGATATTGCCTCTGATCATAGTCAGACCAACATTGCTACGACCCGTATTCGCACCGACAC”, the “relative integration efficiency (log2)” value was -3.13 ± 0.069 in data set [1] and -1.78 ± 0.24 in data set [2].

Consider “ACATTTGTTGATAAAACCATAAAATGATTTTTAGAAACCATAATCTGAAATTATCACACCCATAAATTGATATTGCCTCTGATCATAGTCAGACCAACATTGCTACGACCCGTATTCGCACCGACAC”, for which the “relative integration efficiency (log2)” value was -2.97 ± 0.17 in data set [1] and -2.56 ± 0.33 in data set [2].

“ACATTTGTTGATAAAACCATACGTTGATTTTAAGAAACCATACGCTGAAATAATCACACCCATAAATTGATATTGCCTCTGATCATAGTCAGACCAACATTGCTACGACCCGTATTCGCACCGACAC”: the “relative integration efficiency (log2)” value in data set [1] is -6.06 ± 0.18; in data set [2], -3.87 ± 0.6.

As to “ACATTTGTTGATAAAACCATACGTTGATTTTACCACCCATAAATTGATAATTATCACACCCATAAATTGATATTGCCTCTGATCATAGTCAGACCAACATTGCTACGACCCGTATTCGCACCGACAC”, the “relative integration efficiency (log2)” value in data set [1] is -2.65 ± 0.17; in data set [2], -2.98 ± 0.21.

Consider “ACATTTGTTGATAAAACCATACGTTGATTTTACGAAACCATACGCTGAAATAATCACACCCATAAATTGATATTGCCTCTGATCATAGTCAGACCAACATTGCTACGACCCGTATTCGCACCGACAC”, for which the “relative integration efficiency (log2)” value in data set [1] was -5.63 ± 0.18; in data set [2] it was -3.87 ± 1.2.

For the sequence “ACATTTGTTGATAACACCATAAAATGATAATTACACCCATAAATTGATAATTATCACACCCATAAATTGATATTGCCTCTGATCATAGTCAGACCAACATTGCTACGACCCGTATTCGCACCGACAC”, the figures for the “relative integration efficiency (log2)” value in data set [1] and in data set [2] were -0.41 ± 0.018 and -0.747 ± 0.13, respectively.

The values are drawn from the supplement of paper PMC10201428.
